Laboratory results taken from patent publication US20150210761A1 (SAMSUNG ELECTRONICS, published 2015).

T1: hAng1 (human, UniProt Q15389 20-498, limits assumed)
T1 construct: Tested by the same SPR set-up as hAng2; the construct is not described; also called human Ang1
T1 sequence (looked up): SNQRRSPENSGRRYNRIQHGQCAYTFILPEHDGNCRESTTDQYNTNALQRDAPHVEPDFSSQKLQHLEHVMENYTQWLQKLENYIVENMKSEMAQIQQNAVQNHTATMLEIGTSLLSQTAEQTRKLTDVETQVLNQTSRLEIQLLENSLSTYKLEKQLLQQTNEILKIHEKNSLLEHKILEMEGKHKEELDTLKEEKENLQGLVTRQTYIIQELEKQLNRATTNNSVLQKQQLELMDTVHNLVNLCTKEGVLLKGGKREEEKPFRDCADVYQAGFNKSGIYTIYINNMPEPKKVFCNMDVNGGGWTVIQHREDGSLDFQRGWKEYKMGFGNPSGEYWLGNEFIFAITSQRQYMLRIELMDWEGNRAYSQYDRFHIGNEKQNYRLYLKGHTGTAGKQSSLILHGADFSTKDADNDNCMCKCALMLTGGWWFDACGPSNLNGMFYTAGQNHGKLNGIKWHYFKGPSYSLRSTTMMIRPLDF

T2: human Ang2 protein (R&D systems) (human, UniProt O15123 19-496)
T2 sequence: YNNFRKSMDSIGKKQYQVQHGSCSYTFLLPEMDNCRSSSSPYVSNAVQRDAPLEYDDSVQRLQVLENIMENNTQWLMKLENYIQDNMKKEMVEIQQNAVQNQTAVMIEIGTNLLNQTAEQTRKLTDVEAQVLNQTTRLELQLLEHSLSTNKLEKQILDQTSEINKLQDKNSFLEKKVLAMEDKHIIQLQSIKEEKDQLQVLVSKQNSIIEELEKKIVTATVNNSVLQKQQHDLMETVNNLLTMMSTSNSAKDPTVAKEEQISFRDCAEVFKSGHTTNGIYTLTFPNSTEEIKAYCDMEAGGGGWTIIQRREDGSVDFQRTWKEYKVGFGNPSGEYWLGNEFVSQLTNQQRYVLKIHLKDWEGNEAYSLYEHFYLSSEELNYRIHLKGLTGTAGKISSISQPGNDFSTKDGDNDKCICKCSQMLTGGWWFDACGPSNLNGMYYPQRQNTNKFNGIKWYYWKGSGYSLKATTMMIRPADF

T3: recombinant hAng-2 (C-His, R&D Systems) (human, UniProt O15123 19-496)
T3 construct: Bought protein; Captured on an anti-His antibody chip for SPR; also called human Ang2; not shown: C-terminal His tag
T3 sequence: T2 sequence

T4: FLAG-tagged hAng-2 (human, UniProt O15123 19-496)
T4 sequence: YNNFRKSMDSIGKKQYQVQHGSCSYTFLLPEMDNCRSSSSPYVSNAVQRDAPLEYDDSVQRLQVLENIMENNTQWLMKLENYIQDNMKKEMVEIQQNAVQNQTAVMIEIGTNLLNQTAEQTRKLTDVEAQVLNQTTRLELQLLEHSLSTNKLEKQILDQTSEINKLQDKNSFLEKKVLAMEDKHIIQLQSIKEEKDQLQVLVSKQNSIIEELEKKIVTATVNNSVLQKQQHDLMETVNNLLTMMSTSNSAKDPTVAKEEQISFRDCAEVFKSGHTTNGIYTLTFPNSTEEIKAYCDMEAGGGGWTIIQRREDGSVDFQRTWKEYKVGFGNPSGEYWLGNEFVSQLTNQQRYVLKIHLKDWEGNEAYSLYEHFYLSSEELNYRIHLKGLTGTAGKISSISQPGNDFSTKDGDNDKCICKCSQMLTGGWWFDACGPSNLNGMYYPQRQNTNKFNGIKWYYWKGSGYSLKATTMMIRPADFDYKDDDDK

B1: SAIT-ANG2-AB-m3E2 (antibody, V domains shown)
VH: EVQLQQSGAELVKPGASVKLSCTASGFNIKDPYIHWVKQRPEQGLEWIGRIDPANGNTKYDPKFQGKATITADTSSNTAYLQLSSLTSEDTAVYYCVRRWDGGGFDYWGQGTSVTVSS
VL: DIQMTQTTSSLSASLGDRVTISCRASQDISNYLNWYQQKPDGTVKLLIYYTSRLHSGVPSRFSGSGSGTDYSLTITNLEQEDIATYFCQQGNTLPWTFGGGTKLEIK
notes: also called hybridoma KCLRF-BP-00305
B2: SAIT-ANG2-AB-m1A10 (antibody, V domains shown)
VH: QVQLQQSGAELMKPGASVKISCKATDYTFSSYWLEWLIQRPGHGLEWIGEILPGSGSTNYNEKFRGKATFTEDTSSNTAYMQLSSLTSEDSAVYYCARGNHNSYYYAMDYWGQGTSVTVSS
VL: DIVLTQSPASLAVSLGQRATISCRASESVDSYGNSFMHWYQQKPGQPPKLLIYRASNLDSGIPARFSGSGSRTDFTLTINPVEADDVATYYCQQSNEDPLTFGAGTKLELK
notes: also called hybridoma KCLRF-BP-00306
B3: SAIT-ANG2-AB-m8D3 (antibody, V domains shown)
VH: EVQLQQSGPELVKPGDSVKMSCKASGYTFTDYYMKWVRQSHGKSLQWVGEINPKNGDTFYNQIFKGKATLTVDKSSSTAYMQLTSLTSEDSAVYYCTRENDYDVGFFDYWGQGTSVTVSS
VL: TIVMTQTPKFLLVSAGDRITITCKASQSVSNDVAWYQQKPGQSPKLLIYYASNRYPGVPDRFTGSGYGTDFTFTISTVQAEDLAVYFCQQDYTSPWTFGGGTELEIK
notes: also called hybridoma KCLRF-BP-00308

Target: T1, hAng1
Assay: SPR, BIAcore T100

B1: no binding (tested: 100 nM (highest antibody concentration)).
B2: no binding (tested: 100 nM (highest antibody concentration)).
B3: no binding (tested: 100 nM (highest antibody concentration)).

Target: T2, human Ang2 protein (R&D systems)
Assay: cell-based or functional assay

In order of rising “Tie2 phosphorylation inhibition (%), antibody at 50 nM, Tie2-overexpressing CHO cells with 20 nM human Ang2” value:
1. B3  76.7%
2. B1  76.9%
3. B2  82%

Target: T3, recombinant hAng-2 (C-His, R&D Systems)
Assay: SPR, BIAcore T100; hAng-2 C-His captured on anti-His chip, antibody flowed
Procedure: To more exactly measure the binding affinity of the anti-Ang2 antibodies to antigen Ang2, the binding affinity of the above antibodies to the antigen was measured by an surface plasmon resonance (SPR) method using BIAcore T100 (GE Healthcare). The SPR method uses refractive index change of light which passes a sensor chip according to the state of materials coated onto the sensor chip, and if an antigen or an antibody is flowed onto a chip coated with the antigen or antibody, it causes changes in refractive index due to their binding and Kd values are thus calculated from the measured values.
First, anti-His antibody was immobilized on a CM5 sensor chip (GE healthcare) up to 8,000 RU levels using a pH 5.0 acetate solution and an amine coupling kit (GE Healthcare). 6 μg/ml of a recombinant hAng-2 (C-His, R&D Systems) protein was flowed onto the chip to be captured at 100 to 200 RU levels.

In order of falling Kd:
1. B2  4.2 nM
2. B3  4 nM
3. B1  1.3 nM

Target: T4, FLAG-tagged hAng-2
Assay: Ang2:Tie2 competition ELISA; hTie2-Fc coated, 400 ng/ml FLAG-tagged hAng-2, anti-FLAG-HRP detection
Procedure: More specifically, MaxiSorp™ flat-bottom plate (Nunc) of 96-well was coated with hTie2-Fc (R&D Systems) which is a protein bound with 4 μg/ml of Fc of human IgG1. After coating, the plate was washed five times with 0.05% (v/v) Tween-20-containing PBS (phosphate buffer saline) and then blocked with 1% (v/v) BSA (bovine serum albumin; Sigma)-containing PBS at a room temperature for 2 hour.
For Ang2:Tie2 competition ELISA, each anti-Ang2 antibody obtained in Example 2 was placed at various concentrations of 400 nM-0.001 nM into each well coated with the hTie-2/Fc fusion protein along with 1% (v/v) BSA and 400 ng/ml of a FLAG-tagged hAng-2 and then, the plate was allowed to react at a room temperature for 2 hours and washed five times with PBST. After that, a HRP-conjugated anti-FLAG antibody (Sigma) diluted in 1% (v/v) BSA-containing PBS at a ratio of 1:5,000 (v/v) was added in an amount of […] to each well to react at a room temperature for 1 hour and then, the plate was washed five times with PBST. Lastly, 100 μl of TMB substrate (Cell Signaling) was added to each well of the plate to induce color development for 3 min. and then, the reaction was ceased by the addition of 100 μl of Stop solution (Cell Signaling) and OD450 values were measured on a plate reader (Molecular Devices).

In order of falling IC50:
1. B2  1.34 nM
2. B3  0.99 nM
3. B1  0.55 nM
